Measured values taken from US20100087363A1 (YEDA RESEARCH AND DEVELOPMENT, published 2010).

Target: T1, LDL (low density lipoprotein; Biomedical Technologies, Inc) (UniProt P04114 28-4563)
T1 construct: LDL is a lipoprotein particle (avg. mass 2.5x10^6 Da) of lipid and protein, not a pure protein
Assay: size exclusion chromatography (Superose 6) of a pre-incubated LDL + sLDLR mix (7 micromolar each); ratio of bound and free sLDLR peaks by sLDLR ELISA, assuming 5-fold dilution
Description: Therefore, we employed another method for testing the binding of sLDLR to LDL. For this purpose, we incubated for 1 h at 37° C. a solution of LDL (Biomedical technologies, Inc, Ma, USA) and r-hsLDLR of Example 5 at a final concentration of 7 micromolar each in PBS plus 10 micromolar Calcium Chloride (PBS+). An aliquot of 0.1 ml was subjected to size exclusion chromatography on a Superose 6 HR 10/30 column (GE Healthcare Life Sciences Cat. No 17-5172-01). The column was eluted with PBS+ at a flow rate of 0.4 ml/min and fractions of 0.5 ml were collected. The concentration of r-hsLDLR was determined by a specific ELISA as follows:
Mab #28 anti-human sLDLR (5 microgram/ml in PBS; corresponding to Mab from hybridoma clone 28 deposited at the CNCM under No. 1-2391-U.S. Pat. No. 6,849,720) was used for coating of 96-well ELISA plates at 0.1 ml/well overnight at room temperature. The plates were then washed ×3 with PBS containing 0.05% Tween-20 and then blocked by 0.3 ml blocking buffer (1% bovine serum albumin, 5% sucrose, 0.05% sodium azide in PBS). The plates were then washed 3× with PBS. […] The plated were then washed 3× with reagent diluent, a substrate solution (0.1 ml TMB/E, Chemicon) is added to each well and the plates were either read within 5 min at 630 nm or stopped with H₂SO₄ (2 N 0.05 ml) and read at 450 nm.

- Kd: ~10 nM
B1: recombinant human soluble LDL receptor, amino acid residues 25-352 of the LDLR precursor, expressed in CHO cells (receptor)
chain: not shown
modifications: N-glycosylated at Asn 272 of the LDLR precursor
notes: range 25-352; Produced in DHFR-deficient CHO cells (InterPharm Laboratories); also called sLDLR; r-hsLDLR
